# Assays:
# [1] = molecular target: GST-tagged version of human FcγRIIIA (human) (UniProt P08637); test: AlphaLISA vs biotin-huIgG, supernatant, round 1
# [2] = molecular target: GST-tagged version of human FcγRIIIA (human) (UniProt P08637); test: AlphaLISA vs biotin-huIgG, supernatant, round 2
# [3] = molecular target: GST-tagged version of human FcγRIIIA (human) (UniProt P08637); test: AlphaLISA vs biotin-huIgG, supernatant, round 3
# Sequence of GST-tagged version of human FcγRIIIA (human) (P08637 17-208 limits assumed): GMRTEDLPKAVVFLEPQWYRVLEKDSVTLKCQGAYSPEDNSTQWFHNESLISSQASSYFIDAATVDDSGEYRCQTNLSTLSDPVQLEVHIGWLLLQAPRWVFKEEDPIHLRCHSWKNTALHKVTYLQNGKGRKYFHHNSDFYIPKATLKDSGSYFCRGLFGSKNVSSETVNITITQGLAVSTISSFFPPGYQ
substance,measurement,setting,value
"scFv-Fc/Fc, T256V in dummy Fc (Fc fusion)",% inhibition,[1],59.9%
same,Alpha signal,[1],30500
same,% inhibition,[2],60.5%
same,Alpha signal,[2],31800
same,% inhibition,[3],63.3%
same,Alpha signal,[3],28800
"scFv-Fc/Fc, A339T in dummy Fc (Fc fusion)",% inhibition,[1],25.8%
same,Alpha signal,[1],56400
same,% inhibition,[2],27.3%
same,Alpha signal,[2],58400
same,% inhibition,[3],36.6%
same,Alpha signal,[3],49800
"scFv-Fc/Fc, N315S in scFv-Fc (Fc fusion)",% inhibition,[1],65.8%
same,Alpha signal,[1],26000
same,% inhibition,[2],75.8%
same,Alpha signal,[2],19500
same,% inhibition,[3],63.4%
same,Alpha signal,[3],28800
"scFv-Fc/Fc, F243M in dummy Fc (Fc fusion)",% inhibition,[1],43.3%
same,Alpha signal,[1],43100
same,% inhibition,[2],53.1%
same,Alpha signal,[2],37700
same,% inhibition,[3],58.7%
same,Alpha signal,[3],32400
"scFv-Fc/Fc, H268E in scFv-Fc (from UniProt P0DOX5 218-449; P0DOX5 218-449) (Fc fusion)",Alpha signal,[1],54800
same,Alpha signal,[2],56600
same,Alpha signal,[3],57100
"scFv-Fc/Fc, L309S in scFv-Fc (Fc fusion)",% inhibition,[1],20.4%
same,Alpha signal,[1],60500
same,% inhibition,[2],23.5%
same,Alpha signal,[2],61500
same,% inhibition,[3],19.1%
same,Alpha signal,[3],63500
"scFv-Fc/Fc, H268K in scFv-Fc (from UniProt P0DOX5 218-449; P0DOX5 218-449) (Fc fusion)",% inhibition,[1],20.2%
same,Alpha signal,[1],60600
same,% inhibition,[2],22.6%
same,Alpha signal,[2],62200
same,% inhibition,[3],21.6%
same,Alpha signal,[3],61600
"scFv-Fc/Fc, K334V in dummy Fc (Fc fusion)",% inhibition,[1],64.4%
same,Alpha signal,[1],27100
same,% inhibition,[2],66.5%
same,Alpha signal,[2],26900
same,% inhibition,[3],61.6%
same,Alpha signal,[3],30200
"scFv-Fc/Fc, K290Q in scFv-Fc (Fc fusion)",% inhibition,[1],50.8%
same,Alpha signal,[1],37400
same,% inhibition,[2],54.4%
same,Alpha signal,[2],36700
same,% inhibition,[3],48.8%
same,Alpha signal,[3],40300
"scFv-Fc/Fc, T307G in scFv-Fc (Fc fusion)",Alpha signal,[1],32500
same,% inhibition,[3],51%
"scFv-Fc/Fc, E258S in dummy Fc (Fc fusion)",% inhibition,[1],20.6%
same,Alpha signal,[1],60300
same,% inhibition,[2],28%
same,Alpha signal,[2],57900
same,% inhibition,[3],21.6%
same,Alpha signal,[3],61600
"scFv-Fc/Fc, K290Y in scFv-Fc (Fc fusion)",% inhibition,[1],87.9%
same,Alpha signal,[1],9170
same,% inhibition,[2],90.2%
same,Alpha signal,[2],7890
same,% inhibition,[3],87%
same,Alpha signal,[3],10200
"scFv-Fc/Fc, K246V in dummy Fc (Fc fusion)",Alpha signal,[1],43800
same,Alpha signal,[2],44500
same,Alpha signal,[3],42800
"scFv-Fc/Fc, K246E in dummy Fc (Fc fusion)",% inhibition,[1],22.4%
same,Alpha signal,[1],58900
same,% inhibition,[2],22.2%
same,Alpha signal,[2],62600
same,% inhibition,[3],32.1%
same,Alpha signal,[3],53300
"scFv-Fc/Fc, K334V + D413N in dummy Fc (Fc fusion)",% inhibition,[1],73.4%
same,Alpha signal,[1],20200
same,% inhibition,[2],73.4%
same,Alpha signal,[2],21400
same,% inhibition,[3],67.6%
same,Alpha signal,[3],25400
"scFv-Fc/Fc, E294L in dummy Fc (Fc fusion)",Alpha signal,[1],30100
same,Alpha signal,[2],35400
same,Alpha signal,[3],32200
"scFv-Fc/Fc, I332E in dummy Fc (Fc fusion)",% inhibition,[1],85.8%
same,Alpha signal,[1],10800
same,% inhibition,[2],87.7%
same,Alpha signal,[2],9880
same,% inhibition,[3],85.3%
same,Alpha signal,[3],11500
"scFv-Fc/Fc, I332E in scFv-Fc (Fc fusion)",% inhibition,[1],75.1%
same,Alpha signal,[1],18900
same,% inhibition,[2],74.6%
same,Alpha signal,[2],20400
same,% inhibition,[3],76.5%
same,Alpha signal,[3],18400

# From patent US20140112926A1
